# Experimental data as given in patent US20230159661A1 (published 2023).
# Like-named read-outs stand apart in the source and are kept apart here.
# Experiments:
# [1] = target: T1, human EGFR soluble extracellular region with C-terminal poly-histidine tag (hEGFR) (UniProt P00533 25-638); experiment: SPR
# [2] = target: T1, human EGFR soluble extracellular region …; experiment: SPR; remark: listed apart in the source
Binder,Kd [1] [nM],Kd [2] [nM]
"3A6 chimeric antibody (antibody, V domains shown) VH: QVQLKQSGPGLVQPSQSLSITCTVSGFSLTSYGVHWVRQSPGKGLEWLGVIWSGGTTDYNAAFISRLSISQDNSKSQVFFKMNSLQANDTAIYYCAGNQGRTVRPTWFAYWGQGTLVTVSS VL: DILLTQSPAILSVSPGERVSFSCRASQSIGTSIHWYQQRANGSPRLLIKYASESISGIPSRFSGSGSGTDFTLSINSVESEDIAHYYCQQNSNWPLTFGAGTKLELKR",346,
"10E6 chimeric antibody (antibody, V domains shown) VH: DVQLQESGPGRVKPSQSLSLTCTVTGYSLTSDYAWSWIRQFPGNRLEWMVYITYSGITTYNPSLKSRISITRDTSKNQFFLQLNSVTTEDTATYYCAGGDYGLSSWFAYWGQGTLVTVSS VL: DIVLTQSPVTLSVTPGDRVSLSCRASQSISNYLHWYQQKSHESPRLLIKYASQSISGIPSRFSGSGSGTDFTLSINSVETEDFGMYFCQQSNNWPYTFGGGTKLEIKR",10.8,
"10E6-stable (antibody, V domains shown) VH: EVQLVESGGGLVQPGGSLRLSCAVSGYSLTSDYAWSWIRQAPGKGLEWMVYITYSGITTYNPSLKSRITISRDTSKNTFYLQMNSLRAEDTAVYYCAGGDYGLSSWFAYWGQGTMVTVSS VL: DIQLTQSPSSLSASVGDRVTITCRASQSISNYLHWYQQKPGKAPKLLIKYASQSISGVPSRFSGSGSGTDFTLTISSLQPEDFATYFCQQSNNWPYTFGQGTKVEIKR",,14.5
"10E6-best-fit (antibody, V domains shown) VH: QVQLQESGPGLVKPSQTLSLTCTVSGYSLTSDYAWSWIRQPPGKGLEWMVYITYSGITTYNPSLKSRITISRDTSKNQFSLKLSSVTAADTAVYYCAGGDYGLSSWFAYWGQGTTVTVSS VL: EIVLTQSPDFQSVTPKEKVTITCRASQSISNYLHWYQQKPDQSPKLLIKYASQSISGVPSRFSGSGSGTDFTLTINSLEAEDAATYFCQQSNNWPYTFGQGTKLEIKR",,20.1
